Molecular target: PA63 (cleaved protective antigen) (Bacillus anthracis, UniProt P13423 197-764)
Test: filter binding

PA63 (cleaved protective antigen), sequence (P13423 197-764): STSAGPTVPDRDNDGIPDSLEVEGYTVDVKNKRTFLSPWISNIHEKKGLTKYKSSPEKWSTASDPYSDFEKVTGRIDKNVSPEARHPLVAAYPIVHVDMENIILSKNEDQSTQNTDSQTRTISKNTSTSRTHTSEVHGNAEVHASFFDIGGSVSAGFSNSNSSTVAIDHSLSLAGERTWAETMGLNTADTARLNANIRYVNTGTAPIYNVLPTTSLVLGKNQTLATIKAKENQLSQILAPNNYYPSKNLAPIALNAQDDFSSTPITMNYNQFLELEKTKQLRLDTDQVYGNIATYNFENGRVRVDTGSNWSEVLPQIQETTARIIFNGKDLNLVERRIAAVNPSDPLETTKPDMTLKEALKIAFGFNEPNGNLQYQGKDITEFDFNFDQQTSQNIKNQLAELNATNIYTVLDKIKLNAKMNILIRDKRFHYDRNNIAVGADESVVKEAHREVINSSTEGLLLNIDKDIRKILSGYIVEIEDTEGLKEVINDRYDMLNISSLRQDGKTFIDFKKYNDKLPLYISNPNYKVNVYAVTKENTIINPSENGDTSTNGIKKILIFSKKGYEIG

| Binder | binding result |
| --- | --- |
| PA1StdG (structured_DNA) DNA: AGAGAGCGTCGTGTGGACCATGGGGTGAGTGGGTAGGTGTCCTGAGGAGGTGCGCAAGT | no binding |
| PA1StdA (structured_DNA) DNA: AGAGAGCGTCGTGTGGACCATGGAGTGAGTGAGTAGGTGTCCTGAGGAGGTGCGCAAGT | no binding |
| CGTGTGGACCATGGGGTGAGTGGGTAGGTGTCCTGAGGAGGT (structured_DNA) [PA1T4StdG] | no binding |
| CGTGTGGACCATGGAGTGAGTGAGTAGGTGTCCTGAGGAGGT (structured_DNA) [PA1T4StdA] | no binding |
